Assay results reported in the supplement of paper PMC10724198.
± gives the standard deviation of the averaged measurements.
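Note: PSI is a weighted mean of sequencing reads over stability bins, variants kept only with over 10 reads, mCherry proximal and sfGFP distal, peptide attached via GGGS linker.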

Each sequence was assayed on Saccharomyces cerevisiae (assay: protein stability index of tFT-peptide fusion (C-terminal peptide) (PSI (0-1 scale)); higher = more stable (slower turnover)). Details: genetic background: wild type; temperature: 30 C.
GSCVVRKFGKRS was tested, and the protein stability index was 0.681 ± 0.016.
TGYEVAGWVNWC showed a protein stability index of 0.711 ± 0.018.
In the case of LGGGAGLRCGGF, the protein stability index is reported as 0.673 ± 0.02.
Work on RSIQNLQENIIR yielded a protein stability index of 0.663 ± 0.073.
KNITVVKKAFDA gave a protein stability index of 0.654 ± 0.024.
Work on LLPPALPESPPP yielded a protein stability index of 0.649 ± 0.0072.
For CGCCTSSPFVSQ, the protein stability index was 0.687 ± 0.061.
With AGARPEGPRWGE the protein stability index was 0.703 ± 0.021.
LSWSYTGVCRSE showed a protein stability index of 0.69 ± 0.06.
QPPSPSLFFPRV showed a protein stability index of 0.704 ± 0.016.
GLSLFPVTFFLR showed a protein stability index of 0.585 ± 0.02.
For RVLSVRFRIGRE, the protein stability index was 0.636 ± 0.061.
For PPSRLYFLSPRS, the protein stability index was 0.746 ± 0.039.
LGVGSVGAKCGS gave a protein stability index of 0.639 ± 0.0071.
Work on AVCWWGSVGGVG yielded a protein stability index of 0.6966 ± 0.0069.
Work on FFCTHFQLLFSP yielded a protein stability index of 0.641 ± 0.019.
With DPRHDNRYPRVR the protein stability index was 0.617 ± 0.16.
Work on LGGVLSRQPYSE yielded a protein stability index of 0.643 ± 0.014.
Sequence WVVLGGRSGCGA has a protein stability index of 0.667 ± 0.053.
SPPPPPLPPAYL showed a protein stability index of 0.681 ± 0.012.
Sequence GVLRVRLLAFGL has a protein stability index of 0.65 ± 0.026.
PPSPPPPPPRPP was tested, and the protein stability index was 0.64 ± 0.022.
For SPRYLLFSLRSP, the protein stability index was 0.714 ± 0.11.
For GVNGFRIVCGGE, the protein stability index was 0.674 ± 0.062.
PPPPRPAPAPLL was tested, and the protein stability index was 0.6948 ± 0.0067.
With RTAEGRVRGRPR the protein stability index was 0.689 ± 0.067.
CRGVGGRTVING was tested, and the protein stability index was 0.692 ± 0.032.
Sequence GACIRLLPSFGY has a protein stability index of 0.6434 ± 0.0041.
For VHFFHLCFCEIL, the protein stability index was 0.673 ± 0.051.
For GRGKKRKERAER, the protein stability index was 0.649 ± 0.045.
Sequence RFALSCITPCIL has a protein stability index of 0.661 ± 0.069.
In the case of CPFLFSLFPHSF, the protein stability index is reported as 0.6646 ± 0.0033.
VVWCSWGFLFSA showed a protein stability index of 0.625 ± 0.042.
Sequence LVPWSGCSALLV has a protein stability index of 0.585 ± 0.014.
AVTRLQPVMRAV was tested, and the protein stability index was 0.6804 ± 0.0054.
In the case of SILVAGVSAGRC, the protein stability index is reported as 0.669 ± 0.021.
SLPDSLPRPPPS gave a protein stability index of 0.656 ± 0.072.
FPAYPLPPPAPN was tested, and the protein stability index was 0.697 ± 0.067.
For KITKRTKKTKEN, the protein stability index was 0.67086 ± 0.00056.
EHGEFLEGARGV showed a protein stability index of 0.645 ± 0.0075.
In the case of VSLSSLPRRFSP, the protein stability index is reported as 0.75 ± 0.04.
PPPPSPSPLPPS gave a protein stability index of 0.751 ± 0.015.
With DCIAFVPRDRRS the protein stability index was 0.614 ± 0.012.
In the case of KIRIWWIEEKTI, the protein stability index is reported as 0.6067 ± 0.0023.
VSVGVPGWYGMI was tested, and the protein stability index was 0.6336 ± 0.0049.
IRAGRGPARVVP gave a protein stability index of 0.707 ± 0.058.
For SRFVRNRYGRVV, the protein stability index was 0.648 ± 0.027.
Work on HSPHLLSFFSPM yielded a protein stability index of 0.71 ± 0.076.
In the case of PPLPPSLPPPPP, the protein stability index is reported as 0.63 ± 0.12.
With MVSFEWCLARSY the protein stability index was 0.501 ± 0.054.
Sequence KNKFSTWDNEVN has a protein stability index of 0.718 ± 0.041.
With SFSLPLSPPSFF the protein stability index was 0.721 ± 0.058.
Work on GGGGAGGWGAVG yielded a protein stability index of 0.67 ± 0.036.
Sequence AVAERGRPPLKE has a protein stability index of 0.6893 ± 0.0059.
TSKYQENKQKKR gave a protein stability index of 0.7095 ± 0.0057.
KMCISLGTVLAV gave a protein stability index of 0.5504 ± 0.0055.
QYKKKEKKQNRT showed a protein stability index of 0.624 ± 0.1.
ARSRPSILSGPE gave a protein stability index of 0.689 ± 0.062.
Work on HGGTGDPAGIES yielded a protein stability index of 0.694 ± 0.013.
In the case of GEAGICAGTAGG, the protein stability index is reported as 0.693 ± 0.041.
For RSRVLALSCRSA, the protein stability index was 0.641 ± 0.029.
With RTPRGCSLAYRA the protein stability index was 0.72 ± 0.11.
PIPPESLHPDHN showed a protein stability index of 0.83 ± 0.038.
PPPPPPLFPPCP was tested, and the protein stability index was 0.659 ± 0.11.
TFRADGYFFGRR showed a protein stability index of 0.637 ± 0.042.
RHLSRSVSKVLR gave a protein stability index of 0.629 ± 0.06.
With PPPPLLPPPIPL the protein stability index was 0.6847 ± 0.0032.
For PPPTHRDPLPTP, the protein stability index was 0.684 ± 0.048.
Sequence SGVGCLVFGRGF has a protein stability index of 0.645 ± 0.046.
With IRSVVLSSCWRG the protein stability index was 0.706 ± 0.0097.
In the case of PWKDPSLLLHRS, the protein stability index is reported as 0.743 ± 0.061.
With SSTFPRPSLRPV the protein stability index was 0.64 ± 0.091.
With SPAGGPRGGEGV the protein stability index was 0.678 ± 0.075.
PPQPTSPIRMPT was tested, and the protein stability index was 0.735 ± 0.03.
PPSSPPLQHPPP gave a protein stability index of 0.598 ± 0.038.
Work on PPCPAPLSPPLG yielded a protein stability index of 0.676 ± 0.049.
GPPPLPSPPSHP was tested, and the protein stability index was 0.753 ± 0.1.
In the case of WWVGVVGCGSGA, the protein stability index is reported as 0.676 ± 0.11.
Sequence SCFFFSWIRGFC has a protein stability index of 0.598 ± 0.032.
RPPPHLTPRVSL showed a protein stability index of 0.689 ± 0.047.
AVWGWAFASVGG was tested, and the protein stability index was 0.735 ± 0.04.
In the case of SASVLPSPLPPV, the protein stability index is reported as 0.708 ± 0.028.
SLPPLDTPPSSC was tested, and the protein stability index was 0.73 ± 0.14.
Work on PPPPPSAISPTH yielded a protein stability index of 0.732 ± 0.0036.
Sequence GMLGVGGYGGLW has a protein stability index of 0.717 ± 0.078.
DMSQKSENKKLI was tested, and the protein stability index was 0.689 ± 0.011.
Sequence RIPIGDSHIALK has a protein stability index of 0.692 ± 0.1.
With FLFADVSSPSSI the protein stability index was 0.725 ± 0.038.
AVVVWGGGWWWA showed a protein stability index of 0.78 ± 0.15.
With EGHSPVQNVIEQ the protein stability index was 0.698 ± 0.013.
In the case of RAPRSPPPPALA, the protein stability index is reported as 0.77114 ± 0.00071.
Sequence GYILSFPSVGGW has a protein stability index of 0.724 ± 0.049.
With FFSVLSAISFFF the protein stability index was 0.628 ± 0.06.
Sequence QGGCAATRARGS has a protein stability index of 0.631 ± 0.0033.
With PPPPSPALPTFP the protein stability index was 0.715 ± 0.049.
Sequence KESKIKDKNSII has a protein stability index of 0.734 ± 0.012.
SPRVKEVSREIR was tested, and the protein stability index was 0.689 ± 0.045.
In the case of PLRPSVSALPPF, the protein stability index is reported as 0.683 ± 0.018.
Work on VEERGCCGEAEG yielded a protein stability index of 0.72671 ± 0.00023.
RLSSVPSRSLPA was tested, and the protein stability index was 0.733 ± 0.096.
For KFVSQLGQRTRF, the protein stability index was 0.745 ± 0.05.
